# Laboratory results reported in publication PMC8329713, “The identification and structural analysis of potential 14-3-3 interaction sites on the bone regulator protein Schnurri-3” (Acta Crystallographica. Section F, Structural Biology …, 2021).
# Non-standard residues stand in square brackets, D forms with d. No end group written: not given here. *: point of attachment. FITC = O=C1OC2(c3ccc(O)cc3Oc3cc(O)ccc32)c2ccc(NC(=S)*)cc21; pS = N[C@@H](COP(=O)(O)O)C(=O)O; Ahx = NCCCCCC(=O)O
# Legend:
# 14-3-3σ (full length) [1] = target: T1, 14-3-3σ (full length) (human, UniProt P31947 1-248); assay: fluorescence polarisation; 14-3-3 isoforms (full length) serially diluted twofold in the presence of 10 nM FITC-labelled peptide; 50 mM Tris pH 7.5, 150 mM NaCl, 5 mM MgCl2, 0.05% Tween-20 (no reducing agent listed); one-site specific binding model; details: both partners purified
# T1 construct: 14-3-3 protein sigma, human, full length; Expressed from a pPRoeX-Htb vector; also called 14-3-3 isoform σ; the σ isoform; source: E. coli NiCo21(DE3), purified (nickel column, TEV cleavage, second nickel column, SEC)
# T1 sequence (looked up): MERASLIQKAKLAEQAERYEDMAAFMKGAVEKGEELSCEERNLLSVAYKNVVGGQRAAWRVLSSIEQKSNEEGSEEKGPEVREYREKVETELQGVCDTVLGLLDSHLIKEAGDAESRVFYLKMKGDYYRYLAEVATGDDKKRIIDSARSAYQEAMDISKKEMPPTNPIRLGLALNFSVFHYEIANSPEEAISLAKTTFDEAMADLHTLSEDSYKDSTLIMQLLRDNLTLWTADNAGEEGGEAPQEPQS
# 14-3-3σ (full length) [2] = target: T1, 14-3-3σ (full length); assay: ITC; peptide titrated into the cell containing the 14-3-3 protein, 18 injections of 2 µl, 25°C; 50 mM Tris pH 7.5, 150 mM NaCl, 5 mM MgCl2, 2 mM 2-mercaptoethanol, 0.05% Tween-20 (reducing conditions); details: both partners purified
# 14-3-3τ (full length) = target: T2, 14-3-3τ (full length) (human, UniProt P27348 1-245); assay: FP
# T2 chain: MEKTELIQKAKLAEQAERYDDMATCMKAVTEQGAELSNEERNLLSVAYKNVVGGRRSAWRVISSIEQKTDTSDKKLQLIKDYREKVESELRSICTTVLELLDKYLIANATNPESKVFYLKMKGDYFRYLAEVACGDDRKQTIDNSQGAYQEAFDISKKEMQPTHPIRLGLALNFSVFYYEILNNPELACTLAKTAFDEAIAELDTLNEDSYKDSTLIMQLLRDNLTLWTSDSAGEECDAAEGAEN
# 14-3-3ζ (full length) = target: T3, 14-3-3ζ (full length) (human, UniProt P63104 1-245); assay: FP
# T3 chain: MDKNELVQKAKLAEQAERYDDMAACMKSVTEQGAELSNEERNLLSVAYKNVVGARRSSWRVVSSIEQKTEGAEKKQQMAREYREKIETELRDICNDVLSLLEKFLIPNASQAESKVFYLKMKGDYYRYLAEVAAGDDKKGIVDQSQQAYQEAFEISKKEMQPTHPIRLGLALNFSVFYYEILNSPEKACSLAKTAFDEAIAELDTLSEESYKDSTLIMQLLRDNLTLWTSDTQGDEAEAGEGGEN
# 14-3-3β (full length) = target: T4, 14-3-3β (full length) (human, UniProt P31946 1-246); assay: FP
# T4 chain: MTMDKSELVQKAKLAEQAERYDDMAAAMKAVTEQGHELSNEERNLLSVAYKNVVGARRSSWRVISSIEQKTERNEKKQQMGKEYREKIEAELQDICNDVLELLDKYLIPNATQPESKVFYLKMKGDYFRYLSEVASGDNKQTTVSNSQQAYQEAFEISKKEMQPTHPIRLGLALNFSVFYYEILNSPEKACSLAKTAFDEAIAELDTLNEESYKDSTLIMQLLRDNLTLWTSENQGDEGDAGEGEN
# 14-3-3ɛ (full length) = target: T5, 14-3-3ɛ (full length) (human, UniProt P62258 1-255); assay: FP
# T5 chain: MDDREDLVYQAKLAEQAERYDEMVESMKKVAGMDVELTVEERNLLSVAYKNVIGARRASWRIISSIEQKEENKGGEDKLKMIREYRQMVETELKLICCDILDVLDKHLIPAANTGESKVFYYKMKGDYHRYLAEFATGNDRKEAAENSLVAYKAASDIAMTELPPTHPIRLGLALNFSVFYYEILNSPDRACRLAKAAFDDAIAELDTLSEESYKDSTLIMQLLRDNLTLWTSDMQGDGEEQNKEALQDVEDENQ
binder,measurement,setting,value
"{FITC-Ahx}-LLRSH[pS]MPSAAC (also: phosphoserine at 542, position not mapped, Schnurri-3 (SHN3, transcription factor HIVEP3), human, 12-mer around phosphorylated Ser542; also called SHN3pS542-FITC; the FITC-labelled form; source: synthetic peptide, bought: GenScript (purity >95%)) [SHN3pS542 peptide, N-terminally FITC-Ahx-labelled]",Kd,14-3-3σ (full length) [1],26 ± 2 nM
same,Kd,14-3-3σ (full length) [2],4800 ± 800 nM
same,Kd,14-3-3τ (full length),1910 nM
same,Kd,14-3-3ζ (full length),2140 nM
same,Kd,14-3-3β (full length),1380 nM
same,Kd,14-3-3ɛ (full length),2510 nM
